Test results taken from a protein production outcome set (Wang et al. 2014).

Assay: label from the status in PepcDB records
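Note: failed if final PepcDB status was selected cloned or expressed and not failed if soluble or beyond.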

Sequence | protein production
MNLSFKIFDISNTQRSKAKKVQGKKYEIFLNENEHSLITPKVSFKEILRYYYLYPKNAIPSFKLPFFKPDLSGFSTPHITWLGHSSLFISFKEYKILIDPIFNTHASPISFINKAFKNAPVYNINDFNEIFAVIITHSHFDHLDAKSVKALKDKAKFFITPLKVGNYLKSYGVSEKKIIELDWWSGIEFGDLKIMATPAQHSSSRGDGKNKTLWASFVMEFLSVDKRVFFSADGGYFTHFKKIGEYFGSFDLACLESGQFNIAWPYSHSFPEQILKEAKDLNAKAVMPIHWGRFLAGTHAWNEVVKFLYENLDLPLITPKMGEAYEVGAKFKQDFWWKEELEHHHHHH | failed
MSADGSEYGRYFEQLQKVNLTVRLGDTGSFDGTAAITSLKGSLAWLELFGAEQPPPNTLSEGAEVSVSVWTGGALCRCDGRVETLRDDRQFAIRLVGRVRELQRREYF | not failed
TAYIIVGLTPKDAEKLQQYGARVASTLAKYSGEVLVKGSVEQLHGKFEHKAQVILEFPSREDAYNWYHSEEYQALISTRDLGMDSQFQLIG | not failed
LTVTVTHSNEKHDLHVTSQQGSSEPVVQDLAQVVEEVIGVPQSFQKLIFKGKSLKEMETPLSALGIQDGCRVMLIGKKN | not failed
MITLSQRIFIILESAWRRRYLIVLPIILMPFIGLTVAKLAPKHYDSHTSMLIQETAKMNPFLEDLAVSTMLKERLSALQTLLHSRHILGSVAEERGYIHESMSPQAIDNEINKLSANLSVSMAGKDLIRIDYRANNPDGMKDTLEAVSRHFTEQLLAPERSSMKDSSKFLSDNIEFRRQELDAAEEKLAEFKSQENTVLPEMQITSLDRLTKLKQRLYERQAELAGAKKRLGSIDLQLSKTNPVIGKIEEQIIRIRGELTLLQAKYTPQHSKVQGKLRNLNRLEEERSRLLSQTQPGLSSEQLWDIASSNSVEDLAKAPPILLSQLEELQQATSKVDALTEETRVLESMIKDIELQASTFGQNEKVLYQLQRDLALKRELYNDLVERFEMAKLTRSLGVFEQEKRVKIIDRPYTPSGPSNLPTILYAIAGVIGGIGFGIGMAIIAELCDTSIRRKDEIATLSTSPVLSRIPPQPVKCFNLSEDTHSTTNNLLSSMSKAN | failed
MRRFVIGQAKNLIDQSRRRQLHHHKNLSFVSLIPPFSAPSDSSSRHLSSSSSSDMSASDSSSSLPVTLDTINPKVIKCEYAVRGEIVNIAQKLQEDLKTNKDAYPFDEIIYCNIGNPQSLGQQPITFFREVLALCSYTALLDESATHGLFSSDSIERAWKILDQIPGRATGAYSHSQGIKGLRDAIADGIEARDGFPADPNDIFMTDGASPGVHMMMQLLITSEKDGILCPIPQYPLYSASIALHGGTLVPYYLDEASGWGLEISELKKQLEDARSKGITVRALAVINPGNPTGQVLSEENQRDVVKFCKQEGLVLLADEVYQENVYVPDKKFHSFKKVARSMGYGEKDLALVSFQSVSKGYYGECGKRGGYMEVTGFTSDVREQIYKMASVNLCSNISGQILASLIMSPPKPGDDSYESYIAEKDGILSSLARRAKTLEEALNKLEGVTCNRAEGAMYLFPCLHLPQKAIAAAEAEKTAPDNFYCKRLLKATGIVVVPGSGFRQVPGTWHFRCTILPQEDKIPAIVDRLTAFHQSFMDEFRD | failed
MSKIADDQNFNDEEENFAKLFKKELEKEETLEKGTIKEGLVVSINENDGYAMVSVGGKTEGRLALNEITDEKGQLLYQKNDPIIVHVSEKGEHPSVSYKKAISQQKIQAKIEELGENYENAIIEGKIVGKNKGGYIVESQGVEYFLSRSHSSLKNDANHIGKRVKACIIRVDKENHSINISRKRFFEVNDKRQLEVSKELLEATEPVLGVVRQITPFGIFVEAKGIEGLVHYSEISHKGPVNPEKYYKEGDEVYVKAIAYDAEKRRLSLSIKATIEDPWEEIQDKLKPGYAIKVVVSNIEHYGVFVDIGNDIEGFLHVSEISWDKNVSHPNNYLSVGQEIDVKIIDIDPKNRRLRVSLKQLTNRPFDVFESKHQVGDVLEGKVATLTDFGAFLNLGGVDGLLHNHDAFWDKDKKCKDHYKIGDVIKVKILKINKKDKKISLSAKHLVTSPTEEFAQKHKTDSVIQGKVVSIKDFGVFINADGIDVLIKNEDLNPLKKDEIKIGQEITCVVVAIEKSNNKVRASVHRLERKKEKEELQAFNTSDDKMTLGDILKEKL | failed
MRGKRGFFGHADSRVRLFCRRLTGKQRILLAGTASFLLAASCLYSILSCVSRFGEPGQRPAMGHIRSVVFRPERTRNIHSNIHKHENGLSENQGTARSVK | failed
MGALLPRGQASRPRTRHGRSPQNDRRQEARDVTGRHLAMVQRPGKMARWVLCCECLRRPMDLTLRLATALLTASLLLPLRPAQAQLAGHGGPVRAIAVSSDGKTVLSGSFDTAAIRWSLATESAEQVLRFHSGAVNAAAFLGDGRMATAGADGQIAIWTAGGLQPDQVLEGHTGPIVGLVVSPDTSKLASASWDHTVRISSLSDGGTRVLQGHSQSVNGVAFAPDGKSLVSVGYDLTVRIWPLAGGSPEIVVMPAPLNAVAISPDGEIVTGAADGKLRMMTADGKENGEVMAGARPIVALAISQDGALIATGAIDGTVAIVDRKARSVMRTLAGLGAPVWSVAFLPDGATLLTGGADGKIRRWNALTGAAIGSNVLGTPADPLAAYVGDHGAEMFRACVACHTLSENEVQRAGPTLAGLFGRKIASLPGYRFTDALKAMDIVWTPETVSKLFEIGPNAYTPGTKMPEQRIGSAEDRRALTDFLARATSK | failed
MQAIRSILVVIEPDQLEGLALKRAQLIAGVTQSHLHLLVCEKRRDHSAALNDLAQELREEGYSVSTNQAWKDSLHQTIIAEQQAEGCGLIIKQHFPDNPLKKAILTPDDWKLLRFAPCPVLMTKTARPWTGGKILAAVDVGNNDGEHRSLHAGIISHAYDIAGLAKATLHVISAHPSPMLSSADPTFQLSETIEARYREACRTFQAEYGFSDEQLHIEEGPADVLIPRTAQKLDAVVTVIGTVARTGLSGALIGNTAEVVLDTLESDVLVLKPDDIIAHLEELASKE | not failed
MLAYQGLFQNGLMQVSPSYFSQTYLLGDVNYQTVGLDDKGAIVEKYSDLINSLDDKTNFQLTIFNQKVNLEKFRKSILYPLQEDGFDTYRDELNRMMDANLEAGENNFSAVKFLSFGKSDQTPKLAFRSLSQIGEYFKSGFSEIDVSLGLLGGEERVNVLADMLRGENHLPFSYKDLTLSGQSTKHFIAPTYLSFKHKNHIELDDRLLQIVYVRDYGMELGDKFIRDLMQSDLEVMISLHAKGSTKSETMTKLRTKKTLMESQKIGEQQKMARTGIYLEKVGHVLENNIDEAEALLQTMTQTGDKLFDTVFLIGVLADTEDQLKQSLDIIKQVAGSNDMIIDNLTYMQEAAFNSLLPFGKNYLEGVSRSLLTSNIAVNAPWTSVDIHDKGGKFYGINQISSNIISIDRGKLNTPSGLILGTSGAGKGMATKHEIISTKLKEADSDTEIIIVDPENEYSIIGQAFGGESIDIAPDSTTFLNVLELSDENMDEDPVKVKSEFLLSWIGKLLDRKMDGREKSLIDRVTRLTYKHFDTPSLVEWVFVLSQQPEQEAKDLALDMELYVEGSLDIFSHRTNIKTDSHFLIYNVKKLGDELKQIALMVIFDQIWNRVVKNQKLGKKTWIYFDEMQLLLLDKYASDFFFKLWSRVRKYGAIPTGITQNVETLLLDANGRRIIANSEFMILLKQAKSDREELVHMLGLSKELEKYLVNPEKGAGLIKAGSTVVPFKNKIPQHTKLFDIMSTDPEKMRTLEHHHHHH | failed
MMEKDERFKQAEFGAIVGIVGNIILAIIKAVIGYIGNSKALLADAVHSASDVIGSLAVLFGLRAAKQPPDEDHPYGHGKAESISAIIVAVLLFIVGIEIAISSIKAFSQELEPPKGITIFAVVLSIIVKEGMFQYKFRLGKRVNSDAIIANAYEHRSDVFSSIAALIGICAAIIGGKFGLDWLVYADPIAGLFVSLLVAKMAWSIGTEAIHATLDHVLHEEDVIPLREAVLQIDGVKKIGSLYAREHGHYVIVDIKVSVDPYITVEEGHRIGKRVKETLMLQDNVQNVFVHINPYSPN | failed
MATSRLQLEGDDSVHLHITHANLKSFSADARFSPQMSVEAVKEKLWKKCGTSVNSMALELYDDSGSKVAVLSDDSRPLGFFSPFDGFRLHIIDLDPSSVTTGGWLEDTSLVEKYNISEEDYAKRTDSFRKFKEKRVSQNPVAAEAKTKENYMEDLCANIKVGDRCQVEPGEKRGMVKYVGRAESLGPGYWVGIQYDEPLGKHDGMVKGTRFFECPRLQGGMVRPDKVKVGDYPERDPFEEDEI | failed
